Measured values: paper PMC7772510

Molecular target: complement fragment iC3b (UniProt P01024)
Assay: ELISA

- percent of the anticipated saturation level at 8 µM: 50%
Substance: GST-αM I-domain (domain or fragment)
